PMC8318587, “Structure-guided microbial targeting of antistaphylococcal prodrugs” (eLife, 2021)

How the values were obtained:
Assay in all cases: Esterase substrate specificity, fluorogenic SAR library kinetics
Format in all cases: biochemical, Staphylococcus aureus
Conditions in all cases: other: SaGloB, fluorogenic ester substrate; pH 7.5; 37.0 °C
[1] = substrate: CC(C)OCC(=O)OCOc1ccc2c(c1)Oc1cc(OCOC(=O)COC(C)C)ccc1C21OC(=O)c2ccccc21
Experimental: (§1) Kinetic measurements were performed according to [White et al., 2018] with minor variation. Lyophilized human and mouse sera were resuspended according to manufacturer instructions in highly pure, filtered water at protein concentrations of 85 mg/mL and 70 mg/mL, respectively. One milliliter of resuspended serum was added to a 24 mL mastermix for a final concentration of 31.25 mM Tris pH 7.5, 312.5 mM NaCl, 1.25 mM MgCl2, 12.5% glycerol, and 3.4 mg/mL or 2.8 mg/mL protein for human and mouse serum, respectively. For purified proteins, 5 mL of a 75 µg/mL stock was added to yield a 20 mL mastermix containing 31.25 mM Tris pH 7.5, 312.5 mM NaCl, 1.25 mM MgCl2, 12.5% glycerol, and 18.75 µg/mL protein. Mastermix was stored on ice when not in use. Twenty microliters of mastermix was transferred to a black, 96-well half area microplate (Corning, CLS3993) and prewarmed at 37°C. Fluorogenic substrates were prepared as 10 mM stock solutions in 100% DMSO and were diluted in water to a starting concentration of 500 µM. Enzyme catalyzed substrate hydrolysis was initiated by addition of 5 µL substrate dilution in technical duplicate to the prewarmed serum or protein solution. Final assay concentrations were as follows: 25 mM Tris pH 7.5, 250 mM NaCl, 1 mM MgCl2, 10% glycerol, and protein at a concentration of 2.72 mg/mL (human serum), 2.24 mg/mL (mouse serum), or 15 µg/mL (FrmB, GloB). The resulting change in fluorescence (λex = 485 nm, λem = 520 nm) was followed for 15 min at 37°C, collecting data every 30 s on a FLUOstar Omega microplate reader (BMG Labtech). Fluorescence measurements were converted to molar concentrations using a fluorescein standard curve (2.5 nmol–0.6 pmol). The initial rates of reaction were measured three independent times with two technical replicates per measurement and fit to a line using GraphPad Prism (GraphPad Software, La Jolla, CA). Initial rates of reaction were plotted versus the concentration of substrate and fit to a standard Michaelis–Menten equation (v = Vmax[S]/(Km + [S])), yielding estimates of Vmax and Km. Values for kcat and kcat/Km were calculated based on amount of enzyme added when purified enzymes were used.

[2] = substrate: COCCC(=O)OCOc1ccc2c(c1)Oc1cc(OCOC(=O)CCOC)ccc1C21OC(=O)c2ccccc21
Experimental: as §1

[3] = substrate: CCCC(C)C(=O)OCOc1ccc2c(c1)Oc1cc(OCOC(=O)C(C)CCC)ccc1C21OC(=O)c2ccccc21
Experimental: as §1

[4] = substrate: CCC(OC)C(=O)OCOc1ccc2c(c1)Oc1cc(OCOC(=O)C(CC)OC)ccc1C21OC(=O)c2ccccc21
Experimental: as §1

[5] = substrate: CCOCC(=O)OCOc1ccc2c(c1)Oc1cc(OCOC(=O)COCC)ccc1C21OC(=O)c2ccccc21
Experimental: as §1

[6] = substrate: CCOCCC(=O)OCOc1ccc2c(c1)Oc1cc(OCOC(=O)CCOCC)ccc1C21OC(=O)c2ccccc21
Experimental: as §1

B1: SaGloB (Staphylococcus aureus subsp. aureus str. Newman) (protein)
chain: MRISSLTLGLVDTNTYFIENDKAVILIDPSGESEKIIKKLNQINKPLKAILLTHAHFDHIGAVDDIVDRFDVPVYMHEAEFDFLKDPVKNGADKFKQYGLPIITSKVTPEKLNEGSTEIEGFKFNVLHTPGHSPGSLTYVFDEFAVVGDTLFNNGIGRTDLYKGDYETLVDSIQDKIFELEGDLPLFPGHGPYTTVDDEQLNPFLHG
Km [1]: 12.0 µM | Vmax [1]: 2.91 pmol*min-1*μg protein-1 | kcat [1]: 0.435 10-3 s-1 | kcat/Km [1]: 36.1 M⁻¹ s⁻¹ | Km [2]: 18.0 µM | Vmax [2]: 1.39 pmol*min-1*μg protein-1 | kcat [2]: 0.208 10-3 s-1 | kcat/Km [2]: 11.5 M⁻¹ s⁻¹ | Km [3]: 84.89 µM | Vmax [3]: 0.351 pmol*min-1*μg protein-1 | kcat [3]: 0.0524 10-3 s-1 | kcat/Km [3]: 0.618 M⁻¹ s⁻¹ | Km [4]: 55.5 µM | Vmax [4]: 2.54 pmol*min-1*μg protein-1 | kcat [4]: 0.380 10-3 s-1 | kcat/Km [4]: 6.84 M⁻¹ s⁻¹ | Km [5]: 42.0 µM | Vmax [5]: 46.4 pmol*min-1*μg protein-1 | kcat [5]: 6.93 10-3 s-1 | kcat/Km [5]: 165 M⁻¹ s⁻¹ | Km [6]: 21.2 µM | Vmax [6]: 0.731 pmol*min-1*μg protein-1 | kcat [6]: 0.109 10-3 s-1 | kcat/Km [6]: 5.15 M⁻¹ s⁻¹
